The text below walks through data of the supplement of paper PMC10724198.

± gives the standard deviation of the averaged measurements.
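Further: PSI is a weighted mean of sequencing reads over stability bins, variants kept only with over 10 reads, mCherry proximal and sfGFP distal, peptide attached via GGGS linker.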

The data set relates to Saccharomyces cerevisiae. Briefly: protein stability index of tFT-peptide fusion (C-terminal peptide) (PSI (0-1 scale)); higher = more stable (slower turnover). The conditions noted are these: genetic background: wild type; temperature: 30 C.
Regarding QKNKKKKQKKEK, the protein stability index was 0.717 ± 0.05. The value for QKPVQGICQEAN was 0.628 ± 0.035; that for QKTSPWRQRGRL was 0.778 ± 0.047; that for QLDPLRPASEFA was 0.602 ± 0.043. In turn, QLILVGYCMLSV had a protein stability index of 0.5612 ± 0.0017.

QLLCMSEPFVRE came in with a protein stability index of 0.699 ± 0.057. The sequence QNEKSKQCIKQT registered a protein stability index of 0.6759 ± 0.0019. QNKTKDQKQRRQ returned a protein stability index of 0.697 ± 0.028.

Sequence QNNTRQQRKTPR returned a protein stability index of 0.683 ± 0.022. Sequence QNSDDFLITDTY yielded a protein stability index of 0.643 ± 0.1. Under QPGGTHDLGGTG stands 0.61 ± 0.012.

QPGPKTTYLEEA registered a protein stability index of 0.686 ± 0.014.

In the case of QPPLPTRLNHRQ, the protein stability index was determined as 0.651 ± 0.045.

In the case of QPQRSRLRQQNT, the protein stability index stood at 0.734 ± 0.081. The value for QPRVSTSGHSAR was 0.722 ± 0.016. QPYHSSPSPRTI had a protein stability index of 0.717 ± 0.073. Sequence QQCVTGKSFYGI showed a protein stability index of 0.856 ± 0.14. QQLPPARLPRRP displayed a protein stability index of 0.745 ± 0.012. QRFVKIRGLEKI: the protein stability index is 0.693 ± 0.026. Under QRGCEAKRGGEG stands 0.628 ± 0.014; under QRSQASIPGQEV, 0.579 ± 0.091.

For QSAPPPLPPRRR, the protein stability index was 0.69 ± 0.03. Under QSARMRRKSNLP stands 0.674 ± 0.028.

Sequence QSLITVETRIGS had a protein stability index of 0.651 ± 0.045. The value for QSPATIPFASHR was 0.731 ± 0.014; that for QSPRRQLEGKLE was 0.619 ± 0.046; that for QTDHINKTTAKI was 0.684 ± 0.021. The value for QTGQVSRVSPHD was 0.672 ± 0.031.

QTHRFLHVGKSL: the protein stability index is 0.621 ± 0.043. Sequence QTLNTKEKREKE registered a protein stability index of 0.727 ± 0.025.

Consider QTYNKRKGAIRA, for which the protein stability index amounted to 0.616 ± 0.016.

In turn, QVLFTPLLNVTK showed a protein stability index of 0.754 ± 0.05. The value for QVTLPHSSLLGW was 0.6749 ± 0.0028; that for QVWLEKDPQETA was 0.691 ± 0.016; that for QYFRKRVLKELP was 0.671 ± 0.074. Under QYGVSIRRDSRP stands 0.642 ± 0.035. RADAPPPTRPEA: the protein stability index came out at 0.744 ± 0.011. Under RAGSLRFRVILY stands 0.635 ± 0.026; under RAHWGEFGYSLF, 0.716 ± 0.018.

RAILTVVRGHLE returned a protein stability index of 0.668 ± 0.0086.

As to RAITPRHKRLVG, the protein stability index turned out to be 0.6934 ± 0.0031. In turn, RAKCELVHGLRT displayed a protein stability index of 0.65 ± 0.026.

In turn, RAKGGFDPKCYS displayed a protein stability index of 0.749 ± 0.076. The value for RAKSTFRVHSHM was 0.6645 ± 0.005. As to RAKVEQTGQKTV, the protein stability index was determined as 0.707 ± 0.011. Under RALLSPFYRFYV stands 0.5956 ± 0.003; under RALNRVWLSRRV, 0.607 ± 0.02. Turning to RALSLLSLLLNR, the protein stability index amounted to 0.696 ± 0.022.

As to RAMLWGPCYRGI, the protein stability index stood at 0.656 ± 0.021.

As for RAPFLSRACCSR, the protein stability index was determined as 0.648 ± 0.013. Regarding RAPPPPARPALP, the protein stability index was 0.687 ± 0.028. The value for RARAIGVGAGRG was 0.691 ± 0.019; that for RARPGRACPGAP was 0.755 ± 0.0097; that for RARVGGRQLRRV was 0.753 ± 0.15. Turning to RARVVRRWDTCG, the protein stability index came to 0.697 ± 0.086. Under RASTRGIMISKS stands 0.706 ± 0.034; under RATLGVSGRCWV, 0.6802 ± 0.001. The sequence RAVHSSPHVSLS gave a protein stability index of 0.681 ± 0.013.

For the sequence RAVKLHIIIFDG, the protein stability index worked out at 0.551 ± 0.025. RAVSGSLSFLLR displayed a protein stability index of 0.721 ± 0.014.

As to RAWELPRLRGRD, the protein stability index worked out at 0.743 ± 0.076. The value for RAWHFWVCGWRV was 0.607 ± 0.041; that for RCAGCFDSAFSW was 0.746 ± 0.012; that for RCFSLFYIYCPA was 0.525 ± 0.0065.

As for RCGVAGVVCGSG, the protein stability index came out at 0.615 ± 0.039. Under RCKCGDALTVIH stands 0.691 ± 0.016; under RCLGDLLARQTP, 0.635 ± 0.012. The value for RCLRALGLFARS was 0.719 ± 0.008; that for RCLSISTSLCKV was 0.744 ± 0.052.

The sequence RCPQHCDLSVYV had a protein stability index of 0.681 ± 0.021.

In turn, RCSAPWFSPYPP registered a protein stability index of 0.645 ± 0.073. The value for RCSLGWKRFDWR was 0.706 ± 0.061; that for RCTNSLPSYLSH was 0.675 ± 0.039; that for RDCPVTPGTLFS was 0.744 ± 0.084. The value for RDGGSTDGGKRR was 0.697 ± 0.024; that for RDNKIKEGKKKK was 0.682 ± 0.1. Under RDSERTSGAMLS stands 0.689 ± 0.031; under REGRRSVWGVSW, 0.685 ± 0.023; under REHLSERVPSRA, 0.749 ± 0.057.

Take REKLINEKRIRR: the protein stability index was determined as 0.704 ± 0.012.
